Data taken from the supplement of paper PMC10065799, “High-throughput profiling of sequence recognition by tyrosine kinases and SH2 domains using bacterial peptide display” (eLife, 2023).

Legend:
[1] = tested on: AncSZ; assay: phosphorylation enrichment, bacterial display (enrichment ratio); higher = better substrate or ligand; peptides without Tyr show the background
[2] = molecular target: EPHB1 (UniProt P54762); assay: as above
[3] = molecular target: EPHB2 (UniProt P29323); assay: as above
[4] = molecular target: FGFR1 (UniProt P11362); assay: as above
[5] = molecular target: FGFR3 (UniProt P22607); assay: as above
FGFR3, sequence (P22607 whole entry, looked up): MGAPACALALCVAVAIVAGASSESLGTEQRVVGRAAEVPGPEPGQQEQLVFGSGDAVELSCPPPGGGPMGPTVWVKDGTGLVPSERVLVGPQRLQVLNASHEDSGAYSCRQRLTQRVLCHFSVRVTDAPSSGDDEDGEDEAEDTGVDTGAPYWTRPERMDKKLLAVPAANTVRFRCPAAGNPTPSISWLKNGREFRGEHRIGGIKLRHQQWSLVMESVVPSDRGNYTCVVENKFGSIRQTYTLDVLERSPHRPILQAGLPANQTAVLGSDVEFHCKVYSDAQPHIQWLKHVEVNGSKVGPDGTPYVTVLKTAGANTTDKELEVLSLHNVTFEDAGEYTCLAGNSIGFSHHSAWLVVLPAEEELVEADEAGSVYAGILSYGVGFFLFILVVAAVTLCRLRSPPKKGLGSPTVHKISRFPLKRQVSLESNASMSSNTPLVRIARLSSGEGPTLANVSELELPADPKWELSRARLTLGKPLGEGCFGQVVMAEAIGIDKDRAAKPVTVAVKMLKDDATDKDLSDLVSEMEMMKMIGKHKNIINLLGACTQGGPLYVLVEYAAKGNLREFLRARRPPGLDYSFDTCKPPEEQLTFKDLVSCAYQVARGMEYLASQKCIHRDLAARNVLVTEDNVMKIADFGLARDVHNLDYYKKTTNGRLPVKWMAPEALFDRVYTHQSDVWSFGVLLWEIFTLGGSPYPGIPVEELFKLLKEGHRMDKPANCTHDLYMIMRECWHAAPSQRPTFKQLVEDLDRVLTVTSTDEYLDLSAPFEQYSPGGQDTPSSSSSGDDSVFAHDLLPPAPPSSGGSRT

[6] = tested on: Fer (mouse); assay: as above
[7] = molecular target: Fes (UniProt P07332); assay: as above
[8] = molecular target: Fyn (UniProt P06241); assay: as above
Fyn, sequence (P06241 whole entry, looked up): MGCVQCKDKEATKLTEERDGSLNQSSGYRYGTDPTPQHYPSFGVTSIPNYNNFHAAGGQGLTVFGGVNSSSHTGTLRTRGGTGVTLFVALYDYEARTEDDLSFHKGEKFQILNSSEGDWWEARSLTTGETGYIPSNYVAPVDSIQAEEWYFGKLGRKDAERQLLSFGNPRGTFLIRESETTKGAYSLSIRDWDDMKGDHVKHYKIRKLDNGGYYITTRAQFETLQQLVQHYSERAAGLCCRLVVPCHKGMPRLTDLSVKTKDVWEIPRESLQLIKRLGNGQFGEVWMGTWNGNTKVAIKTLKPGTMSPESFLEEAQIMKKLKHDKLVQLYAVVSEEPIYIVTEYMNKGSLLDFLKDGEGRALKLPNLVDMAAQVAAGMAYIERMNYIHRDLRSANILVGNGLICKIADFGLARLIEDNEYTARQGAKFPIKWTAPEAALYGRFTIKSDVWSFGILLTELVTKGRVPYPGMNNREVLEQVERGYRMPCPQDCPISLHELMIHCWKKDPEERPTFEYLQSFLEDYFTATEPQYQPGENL

[9] = molecular target: Hck (UniProt P08631); assay: as above
[10] = molecular target: Jak2 (UniProt O60674); assay: as above
[11] = molecular target: MERTK (UniProt Q12866); assay: as above
MERTK, sequence (Q12866 whole entry, looked up): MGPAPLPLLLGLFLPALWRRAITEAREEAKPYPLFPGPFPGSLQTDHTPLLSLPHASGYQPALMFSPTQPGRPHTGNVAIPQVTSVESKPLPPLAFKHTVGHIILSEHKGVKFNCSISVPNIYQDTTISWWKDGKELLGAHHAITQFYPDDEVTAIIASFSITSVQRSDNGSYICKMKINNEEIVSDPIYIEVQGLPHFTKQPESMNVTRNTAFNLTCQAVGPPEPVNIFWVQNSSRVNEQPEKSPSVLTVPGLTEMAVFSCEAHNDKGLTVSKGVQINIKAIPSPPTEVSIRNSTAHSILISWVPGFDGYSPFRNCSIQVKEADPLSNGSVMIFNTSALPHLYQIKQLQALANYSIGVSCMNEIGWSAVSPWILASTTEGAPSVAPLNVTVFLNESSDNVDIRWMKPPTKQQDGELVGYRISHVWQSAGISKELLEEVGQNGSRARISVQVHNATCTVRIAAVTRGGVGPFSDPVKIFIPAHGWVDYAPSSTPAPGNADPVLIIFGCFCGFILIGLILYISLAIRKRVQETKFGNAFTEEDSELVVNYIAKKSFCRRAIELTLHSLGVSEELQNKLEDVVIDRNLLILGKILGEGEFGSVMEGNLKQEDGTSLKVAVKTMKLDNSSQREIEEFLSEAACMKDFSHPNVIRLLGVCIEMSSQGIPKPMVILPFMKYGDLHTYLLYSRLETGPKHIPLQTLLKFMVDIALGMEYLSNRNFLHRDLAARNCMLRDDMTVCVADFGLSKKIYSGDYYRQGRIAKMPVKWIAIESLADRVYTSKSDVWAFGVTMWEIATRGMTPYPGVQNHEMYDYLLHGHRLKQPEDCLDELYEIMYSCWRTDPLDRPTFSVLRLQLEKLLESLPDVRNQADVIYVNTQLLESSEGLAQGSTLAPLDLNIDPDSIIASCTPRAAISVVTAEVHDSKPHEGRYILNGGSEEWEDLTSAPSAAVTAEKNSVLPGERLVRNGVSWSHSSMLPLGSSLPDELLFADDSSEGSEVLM

[12] = tested on: c-Abl (mouse); assay: as above
[13] = tested on: c-Src; assay: as above
[14] = molecular target: Grb2 SH2 (UniProt P62993); assay: SH2 binding enrichment of the phosphorylated peptide, bacterial display (enrichment ratio); higher = better substrate or ligand; peptides without Tyr show the background
Grb2 SH2, sequence (P62993 whole entry, looked up): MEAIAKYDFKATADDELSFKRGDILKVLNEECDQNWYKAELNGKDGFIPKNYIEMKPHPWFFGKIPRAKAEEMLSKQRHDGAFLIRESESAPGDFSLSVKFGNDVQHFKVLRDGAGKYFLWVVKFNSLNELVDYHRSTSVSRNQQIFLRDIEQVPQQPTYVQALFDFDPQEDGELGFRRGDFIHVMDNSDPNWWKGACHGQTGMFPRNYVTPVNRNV

[15] = molecular target: SHP2-C SH2; assay: as above
[16] = molecular target: c-Src SH2; assay: as above
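Wherever SH2 binding enrichment of the phosphorylated peptide, bacterial display is given: peptide library displayed on the E. coli surface as eCPX fusions, selected cells deep-sequenced, score is each peptide's frequency after selection divided by its frequency in the input.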
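Wherever phosphorylation enrichment, bacterial display is given: 11-residue human phosphosite peptides and single-mutation variants displayed on the E. coli surface, counted by deep sequencing, each peptide's frequency after selection divided by its frequency in the unselected input library; frequency after pTyr selection over input frequency; kinase dosed for 20-30% of maximal phosphorylation in three min.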

EPHB2, sequence (P29323 whole entry, looked up): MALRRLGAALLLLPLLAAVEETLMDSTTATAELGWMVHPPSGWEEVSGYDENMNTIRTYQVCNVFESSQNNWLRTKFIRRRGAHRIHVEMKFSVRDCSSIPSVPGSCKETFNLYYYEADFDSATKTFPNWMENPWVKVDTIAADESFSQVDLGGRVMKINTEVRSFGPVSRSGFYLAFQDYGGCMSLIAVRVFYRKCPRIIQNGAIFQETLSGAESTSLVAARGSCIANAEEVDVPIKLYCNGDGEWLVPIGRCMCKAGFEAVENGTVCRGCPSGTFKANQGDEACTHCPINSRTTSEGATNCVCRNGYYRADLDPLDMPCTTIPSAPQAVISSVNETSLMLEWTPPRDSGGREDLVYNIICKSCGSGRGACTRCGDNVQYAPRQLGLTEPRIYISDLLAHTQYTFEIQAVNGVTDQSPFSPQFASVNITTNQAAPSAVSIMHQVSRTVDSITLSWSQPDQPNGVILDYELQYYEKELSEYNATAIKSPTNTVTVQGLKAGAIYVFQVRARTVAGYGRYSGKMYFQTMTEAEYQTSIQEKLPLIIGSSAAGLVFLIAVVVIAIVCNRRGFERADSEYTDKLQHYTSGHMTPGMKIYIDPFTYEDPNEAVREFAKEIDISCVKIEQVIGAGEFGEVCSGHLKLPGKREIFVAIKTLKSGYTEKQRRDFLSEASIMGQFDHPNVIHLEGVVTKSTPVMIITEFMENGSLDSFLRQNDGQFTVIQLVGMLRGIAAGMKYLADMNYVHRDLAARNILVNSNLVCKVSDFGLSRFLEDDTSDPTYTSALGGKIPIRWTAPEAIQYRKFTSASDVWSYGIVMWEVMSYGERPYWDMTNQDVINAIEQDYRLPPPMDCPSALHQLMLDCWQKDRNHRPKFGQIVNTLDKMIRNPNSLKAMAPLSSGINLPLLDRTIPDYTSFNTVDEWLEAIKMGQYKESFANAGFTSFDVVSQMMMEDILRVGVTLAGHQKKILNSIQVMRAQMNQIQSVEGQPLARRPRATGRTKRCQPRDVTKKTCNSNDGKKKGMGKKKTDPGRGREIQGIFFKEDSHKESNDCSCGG
EPHB1, sequence (P54762 whole entry, looked up): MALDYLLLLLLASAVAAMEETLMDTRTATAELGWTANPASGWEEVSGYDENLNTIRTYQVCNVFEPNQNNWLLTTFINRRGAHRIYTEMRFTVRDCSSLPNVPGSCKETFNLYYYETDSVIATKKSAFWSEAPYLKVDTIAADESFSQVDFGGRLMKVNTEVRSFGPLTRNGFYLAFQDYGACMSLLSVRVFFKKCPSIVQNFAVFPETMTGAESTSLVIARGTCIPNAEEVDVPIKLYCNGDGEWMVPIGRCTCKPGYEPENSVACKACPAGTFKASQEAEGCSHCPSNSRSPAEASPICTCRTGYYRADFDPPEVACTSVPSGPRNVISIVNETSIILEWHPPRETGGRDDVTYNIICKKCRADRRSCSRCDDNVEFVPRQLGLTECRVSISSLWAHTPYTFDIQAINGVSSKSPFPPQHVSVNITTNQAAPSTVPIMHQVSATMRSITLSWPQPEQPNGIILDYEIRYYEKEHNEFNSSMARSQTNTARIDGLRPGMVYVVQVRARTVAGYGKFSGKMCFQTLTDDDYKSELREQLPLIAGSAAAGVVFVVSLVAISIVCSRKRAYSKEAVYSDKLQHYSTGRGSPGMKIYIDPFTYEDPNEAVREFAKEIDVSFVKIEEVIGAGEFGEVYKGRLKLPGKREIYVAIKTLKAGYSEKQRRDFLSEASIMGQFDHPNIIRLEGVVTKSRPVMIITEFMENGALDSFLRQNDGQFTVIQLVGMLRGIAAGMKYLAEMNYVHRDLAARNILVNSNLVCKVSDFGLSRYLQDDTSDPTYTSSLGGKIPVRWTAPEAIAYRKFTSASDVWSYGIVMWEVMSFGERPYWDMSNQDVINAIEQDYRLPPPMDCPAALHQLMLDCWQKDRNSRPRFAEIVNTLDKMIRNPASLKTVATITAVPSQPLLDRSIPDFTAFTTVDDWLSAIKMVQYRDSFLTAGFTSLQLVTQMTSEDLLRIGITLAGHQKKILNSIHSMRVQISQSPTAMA

Sequence	phosphorylation enrichment [1]	phosphorylation enrichment [2]	phosphorylation enrichment [3]	phosphorylation enrichment [4]	phosphorylation enrichment [5]	phosphorylation enrichment [6]	phosphorylation enrichment [7]	phosphorylation enrichment [8]	phosphorylation enrichment [9]	phosphorylation enrichment [10]	phosphorylation enrichment [11]	phosphorylation enrichment [12]	phosphorylation enrichment [13]	SH2 binding enrichment [14]	SH2 binding enrichment [15]	SH2 binding enrichment [16]
GPIFRYDSGGA [CYP11B1_Y81_L83S]	0.82	0.487	0.418	0.505	0.554	0.402	0.802	0.478	0.43	0.69	0.42	0.576	0.475	0.969	0.732	0.543
GPQSLYNGLVA [UCP2_Y79_R76Q]	0.622	0.477	0.551	0.493	0.515	0.552	0.614	0.85	3.69	0.744	0.723	0.628	1.83	0.664	0.546	0.697
GQRDLYSGLNQ [CD3E_Y199]	1.11	2.25	2.35	0.449	0.583	4.76	0.749	6.14	12.4	0.594	5.2	1.06	6.88	0.852	0.574	0.822
GRLPEYNTRIA [CCDC151_Y542]	0.512	0.341	0.44	0.404	0.543	0.339	0.589	0.372	0.416	0.55	0.45	0.513	0.408	0.949	0.643	0.482
GRSTCYWPRPR [GAGE12J_Y10_Y9C]	0.762	0.502	0.512	0.538	0.531	0.602	0.686	0.543	0.557	0.885	0.567	0.697	0.649	1.03	0.831	0.507
GSCQEYTGAPF [NAXD_Y85_G81S_YF]	1.16	0.628	0.496	0.536	0.798	0.466	1.04	0.422	0.509	0.98	0.424	0.638	0.564	0.946	0.822	0.596
GSIQQYIFKQE [PRG4_Y1271_YF]	0.836	0.476	0.573	0.531	0.574	0.451	0.738	0.429	0.537	0.508	0.452	0.499	0.545	0.754	0.469	0.362
GSIQQYTYKQE [PRG4_Y1271_I1272T]	0.773	0.45	0.494	0.453	0.559	0.437	0.94	0.37	0.483	0.806	0.374	0.731	0.444	0.604	0.599	0.384
